Literature values in article PMC3721222.
Like-named read-outs stand apart in the source and are kept apart here.

Tests used:
Trypsin (Bos taurus) [1] = target: Trypsin (Bos taurus) (UniProt P00760)
Papain (Carica papaya) [2] = target: Papain (Carica papaya) (UniProt P00784)
Cathepsin L = Cathepsin L (UniProt P07711)
Cathepsin B = Cathepsin B (UniProt P07858)
[3] = target: Chymotrypsin (Bos taurus) (UniProt P00766)
Trypsin (Bos taurus) [4] = target: Trypsin (Bos taurus) (UniProt P00760); remark: listed apart in the source
[5] = target: Chymotrypsin (Bos taurus) (UniProt P00766); remark: listed apart in the source
Trypsin (Bos taurus) [6] = target: Trypsin (Bos taurus) (UniProt P00760); remark: listed apart in the source
Plasmin (Homo sapiens) [7] = target: Plasmin (Homo sapiens) (UniProt P00747)
Trypsin (Bos taurus) [8] = target: Trypsin (Bos taurus) (UniProt P00760); remark: listed apart in the source
[9] = target: Chymotrypsin (Bos taurus) (UniProt P00766); remark: listed apart in the source
Trypsin (Bos taurus) [10] = target: Trypsin (Bos taurus) (UniProt P00760); remark: listed apart in the source
Plasmin (Homo sapiens) [11] = target: Plasmin (Homo sapiens) (UniProt P00747); remark: listed apart in the source
Trypsin (Bos taurus) [12] = target: Trypsin (Bos taurus) (UniProt P00760); remark: listed apart in the source
Cathepsin D = Cathepsin D (UniProt P07339)
Trypsin (Bos taurus) [13] = target: Trypsin (Bos taurus) (UniProt P00760); remark: listed apart in the source
[14] = target: Chymotrypsin (Bos taurus) (UniProt P00766); remark: listed apart in the source
Trypsin (Bos taurus) [15] = target: Trypsin (Bos taurus) (UniProt P00760); remark: listed apart in the source
Trypsin (Bos taurus) [16] = target: Trypsin (Bos taurus) (UniProt P00760); remark: listed apart in the source
[17] = target: Chymotrypsin (Bos taurus) (UniProt P00766); remark: listed apart in the source
[18] = target: Neutrophil elastase (Homo sapiens) (UniProt P08246)
Trypsin (Bos taurus) [19] = target: Trypsin (Bos taurus) (UniProt P00760); remark: listed apart in the source
Plasmin (Homo sapiens) [20] = target: Plasmin (Homo sapiens) (UniProt P00747); remark: listed apart in the source
Plasmin (Homo sapiens) [21] = target: Plasmin (Homo sapiens) (UniProt P00747); remark: listed apart in the source
Trypsin (Bos taurus) [22] = target: Trypsin (Bos taurus) (UniProt P00760); remark: listed apart in the source
[23] = target: Chymotrypsin (Bos taurus) (UniProt P00766); remark: listed apart in the source
Trypsin (Bos taurus) [24] = target: Trypsin (Bos taurus) (UniProt P00760); remark: listed apart in the source
Metalloprotease 2 = Metalloprotease 2 (UniProt P08253)
[25] = target: Chymotrypsin (Bos taurus) (UniProt P00766); remark: listed apart in the source
Trypsin (Bos taurus) [26] = target: Trypsin (Bos taurus) (UniProt P00760); remark: listed apart in the source
[27] = target: Chymotrypsin (Bos taurus) (UniProt P00766); remark: listed apart in the source
Trypsin (Bos taurus) [28] = target: Trypsin (Bos taurus) (UniProt P00760); remark: listed apart in the source
Trypsin (Bos taurus) [29] = target: Trypsin (Bos taurus) (UniProt P00760); remark: listed apart in the source
Papain (Carica papaya) [30] = target: Papain (Carica papaya) (UniProt P00784); remark: listed apart in the source
[31] = target: Chymotrypsin (Bos taurus) (UniProt P00766); remark: listed apart in the source
Trypsin (Bos taurus) [32] = target: Trypsin (Bos taurus) (UniProt P00760); remark: listed apart in the source
Plasmin (Homo sapiens) [33] = target: Plasmin (Homo sapiens) (UniProt P00747); remark: listed apart in the source
Trypsin (Bos taurus) [34] = target: Trypsin (Bos taurus) (UniProt P00760); remark: listed apart in the source
[35] = target: Chymotrypsin (Bos taurus) (UniProt P00766); remark: listed apart in the source
Trypsin (Bos taurus) [36] = target: Trypsin (Bos taurus) (UniProt P00760); remark: listed apart in the source
Trypsin (Bos taurus) [37] = target: Trypsin (Bos taurus) (UniProt P00760); remark: listed apart in the source
Trypsin (Bos taurus) [38] = target: Trypsin (Bos taurus) (UniProt P00760); remark: listed apart in the source
Trypsin (Bos taurus) [39] = target: Trypsin (Bos taurus) (UniProt P00760); remark: listed apart in the source
Trypsin (Bos taurus) [40] = target: Trypsin (Bos taurus) (UniProt P00760); remark: listed apart in the source
[41] = target: Leukocyte elastase (Homo sapiens) (UniProt P08246)
[42] = target: Chymotrypsin (Bos taurus) (UniProt P00766); remark: listed apart in the source
Trypsin (Bos taurus) [43] = target: Trypsin (Bos taurus) (UniProt P00760); remark: listed apart in the source
[44] = target: Pancreatic elastase (Sus scrofa) (UniProt P00772)
Kv1.1 = Kv1.1 (UniProt Q09470)
Kv1.6 = Kv1.6 (UniProt P17658)
Kv1.2 = Kv1.2 (UniProt P16389)
UniProt P16389, sequence (P16389 whole entry): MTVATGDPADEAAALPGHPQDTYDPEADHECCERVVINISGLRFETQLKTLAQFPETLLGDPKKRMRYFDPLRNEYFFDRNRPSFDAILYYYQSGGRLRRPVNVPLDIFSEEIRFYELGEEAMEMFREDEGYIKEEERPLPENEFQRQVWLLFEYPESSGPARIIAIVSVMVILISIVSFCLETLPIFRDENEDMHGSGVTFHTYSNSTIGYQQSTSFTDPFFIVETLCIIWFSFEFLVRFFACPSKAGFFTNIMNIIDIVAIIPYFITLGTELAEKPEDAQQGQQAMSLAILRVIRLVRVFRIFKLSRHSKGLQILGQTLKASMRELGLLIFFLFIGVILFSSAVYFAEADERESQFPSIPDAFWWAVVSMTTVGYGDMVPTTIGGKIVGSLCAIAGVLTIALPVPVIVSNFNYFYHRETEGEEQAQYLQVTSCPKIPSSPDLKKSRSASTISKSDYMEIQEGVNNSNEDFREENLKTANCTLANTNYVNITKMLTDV

UniProt P00760, sequence (P00760 149-246): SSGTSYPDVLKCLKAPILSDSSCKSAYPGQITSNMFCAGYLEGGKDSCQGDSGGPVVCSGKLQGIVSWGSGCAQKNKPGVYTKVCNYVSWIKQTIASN
UniProt P00747, sequence (P00747 581-810): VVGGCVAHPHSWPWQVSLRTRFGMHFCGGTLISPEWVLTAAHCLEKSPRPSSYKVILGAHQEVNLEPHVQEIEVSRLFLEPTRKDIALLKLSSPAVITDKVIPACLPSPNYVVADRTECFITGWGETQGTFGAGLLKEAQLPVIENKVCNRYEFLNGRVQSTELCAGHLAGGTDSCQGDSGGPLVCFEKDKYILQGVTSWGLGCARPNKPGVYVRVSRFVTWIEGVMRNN
UniProt P00784, sequence (P00784 134-345): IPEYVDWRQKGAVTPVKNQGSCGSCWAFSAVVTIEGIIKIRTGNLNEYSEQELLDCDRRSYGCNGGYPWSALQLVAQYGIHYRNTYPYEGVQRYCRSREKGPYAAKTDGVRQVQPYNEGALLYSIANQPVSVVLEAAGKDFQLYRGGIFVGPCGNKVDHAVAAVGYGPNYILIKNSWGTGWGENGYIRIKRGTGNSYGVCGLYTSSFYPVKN
UniProt P00772, sequence (P00772 27-266): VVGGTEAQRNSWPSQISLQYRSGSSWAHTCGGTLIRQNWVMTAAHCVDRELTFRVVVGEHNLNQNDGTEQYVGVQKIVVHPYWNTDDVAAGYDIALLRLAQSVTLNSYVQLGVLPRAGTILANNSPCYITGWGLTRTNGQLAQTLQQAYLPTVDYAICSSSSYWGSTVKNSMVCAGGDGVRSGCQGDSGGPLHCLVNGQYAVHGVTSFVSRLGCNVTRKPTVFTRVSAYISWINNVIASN
UniProt P17658, sequence (P17658 whole entry): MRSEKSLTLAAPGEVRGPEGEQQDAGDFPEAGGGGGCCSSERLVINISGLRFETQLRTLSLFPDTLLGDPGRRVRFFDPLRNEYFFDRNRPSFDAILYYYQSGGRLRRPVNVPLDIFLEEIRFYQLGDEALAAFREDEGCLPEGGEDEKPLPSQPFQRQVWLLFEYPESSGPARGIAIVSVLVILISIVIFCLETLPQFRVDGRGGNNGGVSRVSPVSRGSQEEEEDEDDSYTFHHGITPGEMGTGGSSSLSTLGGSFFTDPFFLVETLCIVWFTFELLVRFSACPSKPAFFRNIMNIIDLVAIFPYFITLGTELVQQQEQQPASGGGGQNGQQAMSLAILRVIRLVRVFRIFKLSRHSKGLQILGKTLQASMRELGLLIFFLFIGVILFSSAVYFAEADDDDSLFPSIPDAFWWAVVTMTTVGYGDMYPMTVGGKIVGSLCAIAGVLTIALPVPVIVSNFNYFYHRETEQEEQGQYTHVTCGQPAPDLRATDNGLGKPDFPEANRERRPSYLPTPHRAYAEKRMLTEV
UniProt P07339, sequence (P07339 65-412): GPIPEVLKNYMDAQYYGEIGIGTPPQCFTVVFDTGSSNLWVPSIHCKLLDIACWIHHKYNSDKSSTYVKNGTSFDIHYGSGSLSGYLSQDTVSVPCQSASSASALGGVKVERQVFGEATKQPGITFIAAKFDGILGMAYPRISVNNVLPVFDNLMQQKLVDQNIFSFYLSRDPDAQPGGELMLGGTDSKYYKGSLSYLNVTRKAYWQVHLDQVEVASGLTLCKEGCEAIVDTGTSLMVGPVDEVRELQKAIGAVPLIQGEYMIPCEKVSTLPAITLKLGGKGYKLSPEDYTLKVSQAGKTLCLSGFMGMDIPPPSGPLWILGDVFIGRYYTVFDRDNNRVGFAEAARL
UniProt P08253, sequence (P08253 110-660): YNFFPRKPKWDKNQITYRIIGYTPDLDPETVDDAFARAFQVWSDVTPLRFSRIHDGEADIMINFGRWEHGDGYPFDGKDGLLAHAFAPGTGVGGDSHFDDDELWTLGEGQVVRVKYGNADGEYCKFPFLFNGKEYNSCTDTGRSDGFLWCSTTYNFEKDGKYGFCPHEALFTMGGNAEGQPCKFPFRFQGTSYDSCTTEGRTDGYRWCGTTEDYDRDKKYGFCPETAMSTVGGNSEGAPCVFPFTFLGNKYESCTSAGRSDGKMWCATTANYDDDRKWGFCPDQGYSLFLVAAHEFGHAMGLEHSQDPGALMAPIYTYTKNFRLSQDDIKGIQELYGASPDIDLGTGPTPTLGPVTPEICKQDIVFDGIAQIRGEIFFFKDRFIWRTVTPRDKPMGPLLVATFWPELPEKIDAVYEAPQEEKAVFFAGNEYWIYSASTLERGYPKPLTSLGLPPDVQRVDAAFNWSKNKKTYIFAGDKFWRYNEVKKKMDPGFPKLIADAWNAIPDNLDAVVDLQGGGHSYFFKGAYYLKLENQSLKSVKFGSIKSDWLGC
UniProt Q09470, sequence (Q09470 whole entry): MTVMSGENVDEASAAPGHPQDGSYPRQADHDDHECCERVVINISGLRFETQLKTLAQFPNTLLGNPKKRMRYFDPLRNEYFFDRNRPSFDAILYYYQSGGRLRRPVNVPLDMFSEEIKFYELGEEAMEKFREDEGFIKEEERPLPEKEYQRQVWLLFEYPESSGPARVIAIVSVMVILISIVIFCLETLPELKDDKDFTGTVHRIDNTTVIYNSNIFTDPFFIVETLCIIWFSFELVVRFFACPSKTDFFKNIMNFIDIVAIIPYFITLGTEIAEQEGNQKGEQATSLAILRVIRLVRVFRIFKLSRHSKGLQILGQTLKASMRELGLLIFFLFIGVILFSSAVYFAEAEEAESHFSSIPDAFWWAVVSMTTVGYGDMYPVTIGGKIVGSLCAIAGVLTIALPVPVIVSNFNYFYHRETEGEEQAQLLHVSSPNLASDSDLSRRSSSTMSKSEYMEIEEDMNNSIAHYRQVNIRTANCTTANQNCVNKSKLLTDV
UniProt P07711, sequence (P07711 114-288, chain 1 of 2): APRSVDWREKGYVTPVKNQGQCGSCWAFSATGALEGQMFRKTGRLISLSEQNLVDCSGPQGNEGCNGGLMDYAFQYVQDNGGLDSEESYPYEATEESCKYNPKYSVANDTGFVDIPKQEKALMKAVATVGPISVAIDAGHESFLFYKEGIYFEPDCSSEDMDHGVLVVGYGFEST
UniProt P07711, sequence (P07711 292-333, chain 2 of 2): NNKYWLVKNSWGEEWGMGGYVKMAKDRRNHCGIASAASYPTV

Question: With Albumin-1 (from UniProt Q3T478) as the substance, how does the Kd (Trypsin (Bos taurus) [1]) read?
Answer: Its Kd is 1.92 nM.

Question: Which Ki (Papain (Carica papaya) [2]) does the source give for Equistatin (from UniProt P81439) here?
Answer: Its Ki is 0.57 nM.

Question: And the Ki (Cathepsin L)?
Answer: Its Ki is 0.051 nM.

Question: And the Ki (Cathepsin B)?
Answer: The Ki was 1.4 nM.

Question: With CBPTI-3 (from UniProt A8Y7N6) as the substance, how does the Ki [3] read?
Answer: The Ki was 2.55 nM.

Question: Which Kd (Trypsin (Bos taurus) [4]) does the source give for rLmKTT-1c (from UniProt P0DJ48) here?
Answer: The Kd was 124 nM.

Question: Which results are given for Dendrotoxin E (from UniProt P00984)?
Answer: Kd [5]: 100 nM; Kd (Trypsin (Bos taurus) [6]): 1 nM

Question: For ShPI-1 (from UniProt P31713), which Kd (Plasmin (Homo sapiens) [7]) is on record?
Answer: The Kd was 2.7 nM.

Question: And the Kd (Trypsin (Bos taurus) [8])?
Answer: Its Kd is 0.11 nM.

Question: What about the Kd [9] of the same substance?
Answer: The Kd was 2.3 nM.

Question: Which Kd (Trypsin (Bos taurus) [10]) does the source give for rLmKTT-1b (SdPI) (from UniProt P0DJ45) here?
Answer: Its Kd is 160 nM.

Question: For Textilinin-2 (from UniProt Q90WA0), which Ki (Plasmin (Homo sapiens) [11]) is on record?
Answer: Its Ki is 2.2 nM.

Question: For rLmKTT-1a (from UniProt P0DJ46), which Kd (Trypsin (Bos taurus) [12]) is on record?
Answer: The Kd was 140 nM.

Question: Which Ki (Cathepsin D) does the source give for “Equistatin second domain (from UniProt P81439)” here?
Answer: The Ki was 0.3 nM.

Question: For “Kalicludin-1 (AsKC1) (from UniProt Q9TWG0)”, which Kd (Trypsin (Bos taurus) [13]) is on record?
Answer: Its Kd is less than 30 nM.

Question: Which results are given for “Trypsin inhibitor I (from UniProt P00991)”?
Answer: Ki [14]: 270 nM; Ki (Trypsin (Bos taurus) [15]): 0.34 nM

Question: With rBmKTT-1 (from UniProt P0DJ49) as the substance, how does the Kd (Trypsin (Bos taurus) [16]) read?
Answer: The Kd was 136 nM.

Question: Which results are given for AvKTI (from UniProt Q8T3S7)?
Answer: Ki [17]: 37.8 nM; Ki [18]: 169 nM; Ki (Trypsin (Bos taurus) [19]): 7.34 nM; Ki (Plasmin (Homo sapiens) [20]): 4.89 nM

Question: With Bt-KTI (from UniProt D8KY58) as the substance, how does the Ki (Plasmin (Homo sapiens) [21]) read?
Answer: The Ki was 2.01 nM.

Question: For SA5 II (from UniProt P10280), which Kd (Trypsin (Bos taurus) [22]) is on record?
Answer: Its Kd is 0.3 nM.

Question: What does the source list for “Chymotrypsin inhibitor (from UniProt P00992)”?
Answer: Ki [23]: 4.3 nM; Ki (Trypsin (Bos taurus) [24]): 5100 nM

Question: Which Ki (Metalloprotease 2) does the source give for Pr-mulgin 1 (from UniProt E7FL11) here?
Answer: Its Ki is 60 nM.

Question: For BF9 (from UniProt P25660), which Kd [25] is on record?
Answer: Its Kd is 58 nM.

Question: For “Kalicludin-3 (AsKC3) (from UniProt Q9TWF8)”, which Kd (Trypsin (Bos taurus) [26]) is on record?
Answer: The Kd was less than 30 nM.

Question: For APHC1 (from UniProt B2G331), which Kd [27] is on record?
Answer: The Kd was 5000 nM.

Question: And the Kd (Trypsin (Bos taurus) [28])?
Answer: The Kd was 1000 nM.

Question: For rBmKTT-2 (from UniProt P0DJ50), which Kd (Trypsin (Bos taurus) [29]) is on record?
Answer: The Kd was 420 nM.

Question: Which Ki (Papain (Carica papaya) [30]) does the source give for “Equistatin N-terminal domain (from UniProt P81439)” here?
Answer: Its Ki is 0.6 nM.

Question: With Bungaruskunin (from UniProt B2KTG1) as the substance, how does the Ki [31] read?
Answer: Its Ki is 6100 nM.

Question: Which Ki (Trypsin (Bos taurus) [32]) does the source give for Trypsin inhibitor (from UniProt P20229) here?
Answer: Its Ki is 0.0035 nM.

Question: Which Ki (Plasmin (Homo sapiens) [33]) does the source give for Bi-KTI (from UniProt G3LH89) here?
Answer: Its Ki is 3.6 nM.

Question: Which Kd (Trypsin (Bos taurus) [34]) does the source give for Jn-IV (from UniProt P16344) here?
Answer: Its Kd is 9.6 nM.

Question: Which Ki [35] does the source give for NACI (from UniProt Q5ZPJ7) here?
Answer: Its Ki is 25 nM.

Question: With CBPTI-2 (from UniProt A8Y7N5) as the substance, how does the Ki (Trypsin (Bos taurus) [36]) read?
Answer: Its Ki is 666 nM.

Question: With CBPTI-1 (from UniProt A8Y7N4) as the substance, how does the Ki (Trypsin (Bos taurus) [37]) read?
Answer: Its Ki is 407 nM.

Question: With rHg1 (from UniProt P0C8W3) as the substance, how does the Kd (Trypsin (Bos taurus) [38]) read?
Answer: The Kd was 107 nM.

Question: For PILP-1 (from UniProt B4ESA2), which Ki (Trypsin (Bos taurus) [39]) is on record?
Answer: The Ki was 55.6 nM.

Question: For “Kalicludin-2 (AsKC2) (from UniProt Q9TWF9)”, which Kd (Trypsin (Bos taurus) [40]) is on record?
Answer: Its Kd is less than 30 nM.

Question: For “Elastase inhibitor AEI (from UniProt P16895)”, which Ki [41] is on record?
Answer: Its Ki is 1000 nM.

Question: Which results are given for OH-TCI (native) (from UniProt B6RLX2)?
Answer: Ki [42]: 170 nM; Ki (Trypsin (Bos taurus) [43]): 170 nM

Question: Which Kd [44] does the source give for “Elastase inhibitor (from UniProt P16895)” here?
Answer: The Kd was 1 nM.

Question: With Toxin I (from UniProt P00979) as the substance, how does the Kd (Kv1.1) read?
Answer: The Kd was less than 20 nM.

Question: What about the Kd (Kv1.6) of the same substance?
Answer: The Kd was less than 20 nM.

Question: What about the Kd (Kv1.2) of the same substance?
Answer: The Kd was less than 20 nM.
